This note sets out measurements from doi:10.1101/2022.09.11.507491.

The target in this experiment is HA-CXCR4-RLuc3 (UniProt P61073). The experiment is described as follows: FRET or BRET. For orientation: Bioluminescence resonance energy transfer reports proximity on the nanometre scale.
Chain of UniProt P61073 (P61073 whole entry): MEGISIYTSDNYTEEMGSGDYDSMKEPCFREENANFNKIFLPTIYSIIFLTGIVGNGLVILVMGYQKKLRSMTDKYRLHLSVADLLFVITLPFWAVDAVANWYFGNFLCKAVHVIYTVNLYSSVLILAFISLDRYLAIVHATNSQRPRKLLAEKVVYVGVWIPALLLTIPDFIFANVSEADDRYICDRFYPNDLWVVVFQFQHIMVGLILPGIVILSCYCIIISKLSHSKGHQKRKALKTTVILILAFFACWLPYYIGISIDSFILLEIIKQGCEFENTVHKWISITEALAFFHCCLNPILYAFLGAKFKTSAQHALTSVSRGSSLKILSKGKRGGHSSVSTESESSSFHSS
As for mVenus-mini-Gαs/i(Y320F), the Kd of BRET acceptor saturation (x axis: acceptor gMFI) was 13.4. Regarding mVenus-miniGαs/i WT, the Kd of BRET acceptor saturation (x axis: acceptor gMFI) was determined as 7.1. Under mVenus-miniGαs/i(Y320E) stands 16.7.
